Data taken from publication PMC9329571, “Regulation of TIA-1 Condensates: Zn2+ and RGG Motifs Promote Nucleic Acid Driven LLPS and Inhibit Irreversible Aggregation”.

What was measured:
[1] = molecular target: FUS-RBD (RGG1-RRM-RGG2-ZnF-RGG3) (UniProt P35637 242-526); assay: fluorescence anisotropy; 12 mM arginine; FA: 10 mM HEPES pH 7.2, 50 mM NaCl, 12 mM arginine (further 1 mM component truncated in the text); temperature not stated; KD from two independent measurements.; settings: protein: recombinant; tags: N-terminal GB1-6xHis; label: 5'-fluorescein; single strand
TIA-1 RRM2,3 = molecular target: T1, TIA-1 RRM2,3 (UniProt P31483-2 93-274); assay: as above; settings: protein: recombinant; tags: 6xHis removed with thrombin; label: 5'-fluorescein; single strand
T1 sequence: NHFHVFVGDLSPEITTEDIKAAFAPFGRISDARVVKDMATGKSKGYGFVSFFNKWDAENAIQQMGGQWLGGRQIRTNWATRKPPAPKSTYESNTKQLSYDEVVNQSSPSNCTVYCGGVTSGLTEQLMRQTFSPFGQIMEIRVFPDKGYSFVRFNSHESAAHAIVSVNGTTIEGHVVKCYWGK

Sequence of FUS-RBD (RGG1-RRM-RGG2-ZnF-RGG3) (P35637 242-526): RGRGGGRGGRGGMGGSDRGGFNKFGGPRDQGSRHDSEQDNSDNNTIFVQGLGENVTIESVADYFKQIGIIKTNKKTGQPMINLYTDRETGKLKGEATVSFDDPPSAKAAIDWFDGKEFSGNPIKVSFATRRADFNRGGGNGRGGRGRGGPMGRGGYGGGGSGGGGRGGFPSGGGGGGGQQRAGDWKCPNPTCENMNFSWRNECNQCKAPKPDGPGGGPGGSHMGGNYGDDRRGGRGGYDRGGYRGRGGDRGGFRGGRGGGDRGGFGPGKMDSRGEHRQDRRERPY

Binder: TTTTTACTCC (ssDNA) [TC1]
- Kd [1]: 30 nM
- Kd (TIA-1 RRM2,3): 2 nM
